Assay results from US20240076386A1 (Pfizer, published 2024).

Key:
[1] = target: T1, cynomolgus monkey E-selectin extracellular domain with 10 His purification tail (cynomolgus monkey, UniProt P16581 22-554 (human entry)); assay: SPR, antibody captured, E-selectin analyte
T1 construct: also called cynomolgus E-selectin; truncated cynomolgus monkey E-selectin
T1 chain: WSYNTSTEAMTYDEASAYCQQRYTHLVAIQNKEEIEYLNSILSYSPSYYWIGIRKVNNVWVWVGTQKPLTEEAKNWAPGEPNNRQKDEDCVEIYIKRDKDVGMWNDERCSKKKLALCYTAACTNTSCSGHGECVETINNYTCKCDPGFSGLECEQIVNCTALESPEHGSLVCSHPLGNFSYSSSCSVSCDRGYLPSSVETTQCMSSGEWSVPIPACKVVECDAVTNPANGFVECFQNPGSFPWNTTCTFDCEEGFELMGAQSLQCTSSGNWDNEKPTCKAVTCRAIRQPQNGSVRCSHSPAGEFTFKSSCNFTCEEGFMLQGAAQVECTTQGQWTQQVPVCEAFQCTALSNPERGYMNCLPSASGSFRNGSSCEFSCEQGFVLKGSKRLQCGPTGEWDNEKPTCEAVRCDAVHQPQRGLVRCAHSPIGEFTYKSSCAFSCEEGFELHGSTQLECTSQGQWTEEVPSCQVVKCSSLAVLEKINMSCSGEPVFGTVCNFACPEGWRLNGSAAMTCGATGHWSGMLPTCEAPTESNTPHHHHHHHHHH
Method: (§1) Final immobilization level of the capture antibody was approximately 10,000 resonance units (RU). The running buffer for immobilization and kinetics was HBS-EP+(10 mM 4-(2-hydroxyethyl)-1-piperazineethanesulfonic acid (HEPES) pH 7.4, 150 mM sodium chloride, 3 mM ethylenediaminetetraacetic acid (EDTA), 0.05% (v/v) Tween-20).
(§2) To characterize binding of antibodies to human, cynomolgus monkey, and mouse E-selectin, an antibody was diluted to 0.5 μg/mL in HBS-EP+ and captured by the anti-human IgG immobilized on flow cells 2, 3 and 4 for 30 seconds to 1 minute at a flow rate of 10 μL/minute to achieve a capture level of 70 to 300 RU. Flow cell 1 was used as a reference surface. […] HBS-EP+ buffer cycles collected for each captured antibody were used for double-referencing (Myszka D G. J. Mol. Recognition 1999; 12(5):279-84). At the end of each cycle, the entire anti-IgG surface was regenerated by a 30 second pulse of 3 M MgCl₂ and a 30 second pulse of ionic buffer (1.83 M MgCl₂, 0.92 M Urea, 1.83 M Guanidine HCl, pH 7.4) (Andersson K. Analy. Chem. 1999; 71(13): 2475-81). Kinetic assays were conducted at 25° C. at a collection rate of 10 Hertz (Hz) on a BIAcore™ T200 instrument (GE Healthcare). Rate constants and affinities were determined by fitting the data to a 1:1 binding model in BIAcore™ T200 Evaluation software version 3.0 (GE Healthcare).
(§3) This was done by first binding the antibody to immobilized anti-human IgG. After antibody capture, dilutions of the E-selectin proteins were flowed over and the association rate constant (ka), disassociation rate constant (kd), t½, and KD values were determined for binding to human and cynomolgus E-selectin (Table 13).

[2] = target: T2, human E-selectin extracellular domain with 10 His purification tail (human, UniProt P16581 22-556); assay: SPR, antibody captured, E-selectin analyte
T2 construct: also called soluable human E-selectin extracellular domain; rhE-Selectin
T2 sequence: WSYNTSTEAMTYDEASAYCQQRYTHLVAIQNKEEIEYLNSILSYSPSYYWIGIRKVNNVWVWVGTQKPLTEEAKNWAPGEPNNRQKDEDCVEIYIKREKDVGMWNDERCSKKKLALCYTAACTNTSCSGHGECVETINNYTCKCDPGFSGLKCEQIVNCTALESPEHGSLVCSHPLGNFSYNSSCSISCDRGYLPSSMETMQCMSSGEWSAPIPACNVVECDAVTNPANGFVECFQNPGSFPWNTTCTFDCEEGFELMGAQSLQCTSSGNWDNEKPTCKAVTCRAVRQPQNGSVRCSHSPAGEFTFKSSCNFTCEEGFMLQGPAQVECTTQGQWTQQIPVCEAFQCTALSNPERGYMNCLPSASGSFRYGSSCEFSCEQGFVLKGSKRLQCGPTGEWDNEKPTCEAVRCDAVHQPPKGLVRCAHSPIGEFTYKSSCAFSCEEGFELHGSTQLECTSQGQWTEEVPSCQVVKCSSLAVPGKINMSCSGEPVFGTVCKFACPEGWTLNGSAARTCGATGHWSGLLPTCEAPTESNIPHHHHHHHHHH
Method: as §1, §2, §3

[3] = target: T3, human P-selectin expressed on CHO cells (human, UniProt P16109 42-830); assay: flow cytometry, CHO human P-selectin cells
T3 construct: whole, on cells; also called CHO-human P-selectin cells; CHO-P-selectin cells
T3 sequence (looked up): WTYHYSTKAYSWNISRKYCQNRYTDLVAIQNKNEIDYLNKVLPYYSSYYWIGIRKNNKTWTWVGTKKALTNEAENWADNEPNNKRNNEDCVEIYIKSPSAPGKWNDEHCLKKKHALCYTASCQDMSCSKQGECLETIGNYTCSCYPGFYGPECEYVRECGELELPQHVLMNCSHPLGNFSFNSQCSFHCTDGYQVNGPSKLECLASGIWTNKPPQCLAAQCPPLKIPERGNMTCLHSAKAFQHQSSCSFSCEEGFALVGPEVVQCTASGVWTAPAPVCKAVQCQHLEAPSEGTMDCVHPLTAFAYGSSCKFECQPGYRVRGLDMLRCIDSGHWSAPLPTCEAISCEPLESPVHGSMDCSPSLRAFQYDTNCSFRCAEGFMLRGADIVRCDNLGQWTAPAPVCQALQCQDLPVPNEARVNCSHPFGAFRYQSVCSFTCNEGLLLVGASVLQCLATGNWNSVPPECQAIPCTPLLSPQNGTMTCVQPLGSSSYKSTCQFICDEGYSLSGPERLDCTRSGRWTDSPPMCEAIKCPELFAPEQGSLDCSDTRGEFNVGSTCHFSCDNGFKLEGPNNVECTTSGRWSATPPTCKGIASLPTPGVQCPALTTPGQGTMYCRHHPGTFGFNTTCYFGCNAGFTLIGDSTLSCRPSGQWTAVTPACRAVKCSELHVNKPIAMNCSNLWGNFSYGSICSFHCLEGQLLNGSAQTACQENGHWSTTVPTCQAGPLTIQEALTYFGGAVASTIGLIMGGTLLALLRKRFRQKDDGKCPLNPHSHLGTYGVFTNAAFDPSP

B1: humanized anti-E-selectin antibody 0841 (antibody, human IgG1, kappa, V domains shown)
VH: EVQLVESGGGLVQPGGSLRLSCAASGYNIRSSYMHWVRQAPGKGLEWVARIDPANGNTIYAEKFKIRFTISADNAKNSAYLQMNSLRAEDTAVYYCAMDLYSTSEYWGQGTLVTVSS
VL: DIQMTQSPSSLSASVGDRVTITCKTSQNINRYLNWYQQKPGKAPKLLIYNANSLQTGVPSRFSGSGSGTDFTLTISSLQPEDFATYFCLQDNSWPLTFGQGTKVEIKR
notes: effector-null human IgG1, kappa
- Kd [1]: 138 nM
- koff [1]: 0.0252 s⁻¹
- kon [1]: 182000 M⁻¹ s⁻¹
- t½ [1]: 27.6 s
- Kd [2]: 92.8 nM
- koff [2]: 0.0237 s⁻¹
- kon [2]: 255000 M⁻¹ s⁻¹
- t½ [2]: 29.3 s

B2: optimized anti-E-selectin antibody 1444 (antibody, human IgG1, kappa, V domains shown)
VH: EVQLVESGGGLVQPGGSLRLSCAASGYAIRSAYMHWVRQAPGKGLEWVARIDPANGNTIYVDSVTGRFTISADNAKNSAYLQMNSLRAEDTAVYYCAMDLYSTSEYWGQGTLVTVSS
VL: DIQMTQSPSSLSASVGDRVTITCKTSQNIERYLNWYQQKPGKAPKLLIYAASSLQSGVPSRFSGSGSGTDFTLTISSLQPEDFATYFCLQDNAWPLTFGQGTKVEIKR
notes: as for B1
- binding result [3]: no binding
